These results are taken from patent US20050080013A1 (Pfizer, published 2005).

T1: lecithin:cholesterol acyltransferase (LCAT), purified from human plasma (human, UniProt P04180 25-440)
T1 sequence (looked up): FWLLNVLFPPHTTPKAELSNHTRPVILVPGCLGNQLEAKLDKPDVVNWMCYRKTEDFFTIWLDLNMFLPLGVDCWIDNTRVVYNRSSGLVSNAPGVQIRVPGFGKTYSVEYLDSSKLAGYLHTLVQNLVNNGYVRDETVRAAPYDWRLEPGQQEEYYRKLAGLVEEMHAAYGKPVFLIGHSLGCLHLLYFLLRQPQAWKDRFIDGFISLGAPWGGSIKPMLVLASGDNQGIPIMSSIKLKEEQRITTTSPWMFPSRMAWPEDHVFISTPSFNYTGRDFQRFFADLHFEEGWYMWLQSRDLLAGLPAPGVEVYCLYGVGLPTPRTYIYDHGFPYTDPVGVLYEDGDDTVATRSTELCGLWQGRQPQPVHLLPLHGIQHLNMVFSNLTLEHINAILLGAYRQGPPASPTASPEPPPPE

B1: peptide 214 (peptide)
peptide: Ac-[dP]VLDLFRELLEELKQKLK-NH2
SMILES: CC(=O)N1CCC[C@@H]1C(=O)N[C@H](C(=O)N[C@@H](CC(C)C)C(=O)N[C@@H](CC(=O)O)C(=O)N[C@@H](CC(C)C)C(=O)N[C@@H](Cc1ccccc1)C(=O)N[C@@H](CCCNC(=N)N)C(=O)N[C@@H](CCC(=O)O)C(=O)N[C@@H](CC(C)C)C(=O)N[C@@H](CC(C)C)C(=O)N[C@@H](CCC(=O)O)C(=O)N[C@@H](CCC(=O)O)C(=O)N[C@@H](CC(C)C)C(=O)N[C@@H](CCCCN)C(=O)N[C@@H](CCC(N)=O)C(=O)N[C@@H](CCCCN)C(=O)N[C@@H](CC(C)C)C(=O)N[C@@H](CCCCN)C(N)=O)C(C)C
B2: peptide 212 (peptide)
peptide: Ac-PVLDLF[Orn]ELLEEL[Orn]Q[Orn]LK-NH2
SMILES: CC(=O)N1CCC[C@H]1C(=O)N[C@H](C(=O)N[C@@H](CC(C)C)C(=O)N[C@@H](CC(=O)O)C(=O)N[C@@H](CC(C)C)C(=O)N[C@@H](Cc1ccccc1)C(=O)N[C@@H](CCCN)C(=O)N[C@@H](CCC(=O)O)C(=O)N[C@@H](CC(C)C)C(=O)N[C@@H](CC(C)C)C(=O)N[C@@H](CCC(=O)O)C(=O)N[C@@H](CCC(=O)O)C(=O)N[C@@H](CC(C)C)C(=O)N[C@@H](CCCN)C(=O)N[C@@H](CCC(N)=O)C(=O)N[C@@H](CCCN)C(=O)N[C@@H](CC(C)C)C(=O)N[C@@H](CCCCN)C(N)=O)C(C)C

Non-standard residues stand in square brackets, D forms with d. No end group written: not given here. Orn = NCCC[C@H](N)C(=O)O; Aib = CC(C)(N)C(=O)O

In the assay the target is T1, lecithin:cholesterol acyltransferase …. In words: cell-based or functional assay.
Take PVLDLFRELLNELLEALQKKLK [peptide 24]: the “ACTIVITY (%) LCAT” value amounted to 53%.

DWLKAFYDKVFEKFKEFF [peptide 245]: the “ACTIVITY (%) LCAT” value was found to be 4%.

Consider PVLDLFRELLEELQKKLK [peptide 220], for which the “ACTIVITY (%) LCAT” value was 22%.

On to Ac-PVLDLFRELGEELKQKLK-NH2 [peptide 227], for which the “ACTIVITY (%) LCAT” value is 0%.

Take [dP]VLDLFRELLNEGLEALKQKLK [peptide 19]: the “ACTIVITY (%) LCAT” value turned out to be 58%.

For the molecule Ac-PALELFKDLLEEFRQRLK-NH2 [peptide 213], the “ACTIVITY (%) LCAT” value worked out at 42%.

With B1, the “ACTIVITY (%) LCAT” value is 39%.

As for DWFKAFYDKVAEKFKEAF [peptide 243], the “ACTIVITY (%) LCAT” value is 5%.

Regarding Ac-DVLDLFRELLEELKQKLK-NH2 [peptide 221], the “ACTIVITY (%) LCAT” value stood at 12%.

On to PVLDLFRELLNELLEGLKQKLK [peptide 22], for which the “ACTIVITY (%) LCAT” value was 54%.

With LDDLLQKWAEAFNQLLKK [peptide 237], the “ACTIVITY (%) LCAT” value is 11%.

For the molecule PLLELFKELLQELLEALKQKLK [peptide 23], the “ACTIVITY (%) LCAT” value turned out to be 54%.

Turning to GIKKFLGSIWKFIKAFVG [peptide 242], the “ACTIVITY (%) LCAT” value worked out at 7%.

Regarding PVLDAFRELLEALLQLKK [peptide 222], the “ACTIVITY (%) LCAT” value was found to be 8%.

For the molecule DWLKAFYDKVAEKLKEAF [peptide 244], the “ACTIVITY (%) LCAT” value turned out to be 5%.

For the molecule DWFKAFYDKVFEKFKEFF [peptide 241], the “ACTIVITY (%) LCAT” value came to 8%.

For Ac-PVLDLFREGLEELKQKLK-NH2 [peptide 228], the “ACTIVITY (%) LCAT” value amounted to 0%.

For Ac-EWLKAFYEKVLEKLKELF-NH2 [peptide 238], the “ACTIVITY (%) LCAT” value worked out at 19%.

With GVLDLFRELLNELLEALKQKLKK [peptide 2], the “ACTIVITY (%) LCAT” value was 105%.

On to PVLDAFRELLEALAQLKK [peptide 223], for which the “ACTIVITY (%) LCAT” value turned out to be 8%.

EWLEAFYKKVLEKLKELF [peptide 246]: the “ACTIVITY (%) LCAT” value is 4%.

Take B2: the “ACTIVITY (%) LCAT” value worked out at 43%.

In the case of PVLDLFRELLELLKQKLK [peptide 217], the “ACTIVITY (%) LCAT” value worked out at 30%.

As to Ac-PVLDLFRELLEEWKQKLK-NH2 [peptide 215], the “ACTIVITY (%) LCAT” value came out at 38%.

With PVLDLFREGWEELKQKLK [peptide 224], the “ACTIVITY (%) LCAT” value amounted to 8%.

With Ac-DWLKAFYDKVAEKLKEAF-NH2 [peptide 240], the “ACTIVITY (%) LCAT” value worked out at 10%.

Consider PVLDAFRELAEALAQLKK [peptide 225], for which the “ACTIVITY (%) LCAT” value worked out at 1%.

Turning to XVLDLFRELLNELLEALKQKLK (D-Pro (p) at 1) [peptide 21], the “ACTIVITY (%) LCAT” value turned out to be 57%.

As for Ac-PVLDLFRELLEEGKQKLK-NH2 [peptide 229], the “ACTIVITY (%) LCAT” value was 0%.

With Ac-EWLEAFYKKVLEKLKELF-NH2 [peptide 239], the “ACTIVITY (%) LCAT” value was 11%.

Turning to PVLELFKELLEELKQKLK [peptide 216], the “ACTIVITY (%) LCAT” value is 35%.

Regarding DWFKAFYDKFFEKFKEFF [peptide 247], the “ACTIVITY (%) LCAT” value is 3%.

With PVLDLFREGLNELLEALKQKLK [peptide 20], the “ACTIVITY (%) LCAT” value stood at 57%.

In the case of PVLDLFRELLNELWQKLK [peptide 219], the “ACTIVITY (%) LCAT” value is 24%.

As for Ac-PVLDLFRELLNELLQKLK-NH2 [peptide 218], the “ACTIVITY (%) LCAT” value came out at 29%.

PVLDFFRELLNE[Aib]LEALKQKLK [peptide 25]: the “ACTIVITY (%) LCAT” value came to 51%.

PVLDAFRELGEALLQLKK [peptide 226]: the “ACTIVITY (%) LCAT” value was found to be 1%.
